# Legend:
# [1] = substrate: c1ccc2[nH]ccc2c1; assay: Tryptophan formation from L-serine and indole, kinetics of wild-type AfTrpB; format: biochemical, Archaeoglobus fulgidus; conditions: other: 60° C., pH 8.0
# Experimental: (§1) Kinetics and UV-Vis Spectroscopy. Data were collected between 550 and 250 nm on a UV1800 Shimadzu spectrophotometer (Shimadzu) using 0.25-20 μM of enzyme in 200 mM potassium phosphate (pH 8.0) in a quartz cuvette. […] PfTrpB activity (kcat) was measured by monitoring tryptophan formation at 290 nm using Δe290=1.89 mM^−1·cm^−1.
# (§2) Cloning, expression, and purification of the different orthologs. The genes encoding AfTrpB (UNIPROT ID O28672), TmTrpB (UNIPROT ID P50909) and EcTrpB (UNIPROT ID P0A879) were obtained from IDT and cloned into pET22(b)+ using Gibson Assembly. Protein expression was carried out in E. coli BL21 E. cloni Express cells (Lucigen) by inoculating 10-mL Terrific Broth (with 100 μg/mL ampicillin (TBamp)) with a single colony and incubated over night at 37° C. and 250 rpm. These overnight cultures were used to scale up to 500-mL TBamp expression cultures, which were grown by shaking at 250 rpm and 37° C. for ˜3 h or until an OD600 of 0.8 was reached. […]
# The three TrpB homologs and their corresponding 0B2 variants were expressed and purified, and then their kinetic properties (kcat and KM of indole) were measured. […] The UV-vis spectra of the enzymes was recorded before and after adding L-serine, relying on the diagnostic spectrum of the PLP cofactor to report the steady state population of the catalytic intermediates.
# [2] = substrate: c1ccc2[nH]ccc2c1; assay: Tryptophan formation from L-serine and indole, kinetics of AfTrpB double mutant; format: biochemical, Archaeoglobus fulgidus; conditions: other: 60° C., pH 8.0
# Experimental: as §1
# as §2, with “reached. Then, after chilling the cultures on ice for 20 min, induction was conducted by the addition of IPTG to a final concentration of 1 mM. Induced cultures were allowed to grow at 250 rpm and 20° C. for another 20 h. After centrifugation, pelleted cells were frozen and stored at −20° C. until further use.” for “reached.”
# [3] = substrate: c1ccc2[nH]ccc2c1; assay: Tryptophan formation from L-serine and indole, kinetics of EcTrpB double mutant; format: biochemical, Escherichia coli; conditions: other: 37° C., pH 8.0
# Experimental: as §1
# as §2, with “reached. Then, after chilling the cultures on ice for 20 min, induction was conducted by the addition of IPTG to a final concentration of 1 mM. Induced cultures were allowed to grow at 250 rpm and 20° C. for another 20 h. After centrifugation, pelleted cells were frozen and stored at −20° C. until further use.” for “reached.”
# [4] = substrate: c1ccc2[nH]ccc2c1; assay: Tryptophan formation from L-serine and indole, kinetics of TmTrpB^T292S; format: biochemical, Thermotoga maritima; conditions: other: 75° C., pH 8.0
# Experimental: (§3) Kinetics and UV-Vis Spectroscopy. Data were collected between 550 and 250 nm on a UV1800 Shimadzu spectrophotometer (Shimadzu) using 0.25-20 μM of enzyme in 200 mM potassium phosphate (pH 8.0) in a quartz cuvette. Samples were incubated at 75° C. for >3 min to ensure a stable temperature was reached. PfTrpB activity (kcat) was measured by monitoring tryptophan formation at 290 nm using Δe290=1.89 mM^−1·cm^−1.
# as §2
# (§4) The next homolog, TmTrpB, was examined. […] The variants without the T292S mutation lacked this probative absorbance peak, but the decrease at 428 nm and concomitant increase at 350 nm are consistent with a similar, though less pronounced activation.
# [5] = substrate: c1ccc2[nH]ccc2c1; assay: Tryptophan formation from L-serine and indole, kinetics of TmTrpB^triple; format: biochemical, Thermotoga maritima; conditions: other: 75° C., pH 8.0
# Experimental: as §3, §2, §4
# [6] = substrate: c1ccc2[nH]ccc2c1; assay: Tryptophan formation from L-serine and indole, kinetics of TmTrpS complex; format: biochemical, Thermotoga maritima; conditions: other: 75° C., pH 8.0
# Experimental: as §3
# as §2, with “reached. Then, after chilling the cultures on ice for 20 min, induction was conducted by the addition of IPTG to a final concentration of 1 mM.” for “reached.”
# TmTrpA gene was also obtained from IDT and cloned into pET22(b)+ using Gibson Assembly, but without including the C-terminal His-tag. […] Protein concentrations were determined via the Bradford assay (Bio-Rad).
# [7] = substrate: c1ccc2[nH]ccc2c1; assay: Tryptophan formation from L-serine and indole, kinetics of wild-type TmTrpB; format: biochemical, Thermotoga maritima; conditions: other: 75° C., pH 8.0
protein,measurement,setting,value
"Archaeoglobus fulgidus tryptophan synthase beta-subunit AfTrpB, wild type, SEQ ID NO: 4 (Archaeoglobus fulgidus DSM 4304) (protein) MRCWLENLSGGRKMKFGEFGGRFVPEVLIPPLEELEKAYDRFKDDEEFKARLEYYLKSYAGRPTPLYFAENLSRELGVKIYLKREDLLHGGAHKINNTIGQALLAKFMGKKRVIAETGAGQHGVATAMAAALLGLEAEIYMGAEDYERQKMNVFRMELLGAKVTAVESGSRTLKDAINEALRDWVESFEHTHYLIGSVVGPHPFPTIVRDFQAVIGKEARRQIIEAEGGMPDAIIACVGGGSNAMGIFHPFLNDDVRLIGVEAGGEGIESGRHSASLTAGSKGVLHGMLSYFLQDEEGMMLDTHSVSAGLDYPGVGPEHAYLKETGRCEYVTVNDEEALRAFKTLSKLEGIIPALESAHAIAYAMKMAEEMQRDDVLVVNLSGRGDKDMDIVRRRLALEHHHHHH",Km,[1],12 µM
"Archaeoglobus fulgidus TrpB variant M156T N178D (Table 6 prints N178T), SEQ ID NO: 24 (Archaeoglobus fulgidus DSM 4304; M156T/N178D) (protein) MRCWLENLSGGRKMKFGEFGGRFVPEVLIPPLEELEKAYDRFKDDEEFKARLEYYLKSYAGRPTPLYFAENLSRELGVKIYLKREDLLHGGAHKINNTIGQALLAKFMGKKRVIAETGAGQHGVATAMAAALLGLEAEIYMGAEDYERQKMNVFRTELLGAKVTAVESGSRTLKDAIDEALRDWVESFEHTHYLIGSVVGPHPFPTIVRDFQAVIGKEARRQIIEAEGGMPDAIIACVGGGSNAMGIFHPFLNDDVRLIGVEAGGEGIESGRHSASLTAGSKGVLHGMLSYFLQDEEGMMLDTHSVSAGLDYPGVGPEHAYLKETGRCEYVTVNDEEALRAFKTLSKLEGIIPALESAHAIAYAMKMAEEMQRDDVLVVNLSGRGDKDMDIVRRRLALEHHHHHH",Km,[2],11 µM
"Escherichia coli TrpB variant M149T N171D (Table 6 prints N171T), parent SEQ ID NO: 8, variant SEQ ID NO: 40 (Escherichia coli K-12; M149T/N171D) (protein) MTTLLNPYFGEFGGMYVPQILMPALRQLEEAFVSAQKDPEFQAQFNDLLKNYAGRPTALTKCQNITAGTNTTLYLKREDLLHGGAHKTNQVLGQALLAKRMGKTEIIAETGAGQHGVASALASALLGLKCRIYMGAKDVERQSPNVFRTRLMGAEVIPVHSGSATLKDACDEALRDWSGSYETAHYMLGTAAGPHPYPTIVREFQRMIGEETKAQILEREGRLPDAVIACVGGGSNAIGMFADFINETNVGLIGVEPGGHGIETGEHGAPLKHGRVGIYFGMKAPMMQTEDGQIEESYSISAGLDFPSVGPQHAYLNSTGRADYVSITDDEALEAFKTLCLHEGIIPALESSHALAHALKMMRENPDKEQLLVVNLSGRGDKDIFTVHDILKARGEILEHHHHHH",Km,[3],18 µM
"Thermotoga maritima TrpB variant TmTrpB^T292S, SEQ ID NO: 26 (Thermotoga maritima MSB8; T292S) (protein) MKGYFGPYGGQYVPEILMPALEELEAAYEEIMKDESFWKEFNDLLRDYAGRPTPLYFARRLSEKYGARIYLKREDLLHTGAHKINNAIGQVLLAKKMGKTRIIAETGAGQHGVATATAAALFGMECVIYMGEEDTIRQKPNVERMKLLGAKVVPVKSGSRTLKDAINEALRDWITNLQTTYYVIGSVVGPHPYPIIVRNFQKVIGEETKKQILEKEGRLPDYIVACVGGGSNAAGIFYPFIDSGVKLIGVEAGGEGLETGKHAASLLKGKIGYLHGSKTFVLQDDWGQVQVSHSVSAGLDYSGVGPEHAYWRETGKVLYDAVTDEEALDAFIELSRLEGIIPALESSHALAYLKKINIKGKVVVVNLSGRGDKDLESVLNHPYVRERIRLEHHHHHH",Km,[4],25 µM
"Thermotoga maritima TrpB variant TmTrpB^triple (P19G, I69V, T292S), SEQ ID NO: 34 (Thermotoga maritima MSB8; I69V/P19G/T292S) (protein) MKGYFGPYGGQYVPEILMGALEELEAAYEEIMKDESFWKEFNDLLRDYAGRPTPLYFARRLSEKYGARVYLKREDLLHTGAHKINNAIGQVLLAKKMGKTRIIAETGAGQHGVATATAAALFGMECVIYMGEEDTIRQKPNVERMKLLGAKVVPVKSGSRTLKDAINEALRDWITNLQTTYYVIGSVVGPHPYPIIVRNFQKVIGEETKKQILEKEGRLPDYIVACVGGGSNAAGIFYPFIDSGVKLIGVEAGGEGLETGKHAASLLKGKIGYLHGSKTFVLQDDWGQVQVSHSVSAGLDYSGVGPEHAYWRETGKVLYDAVTDEEALDAFIELSRLEGIIPALESSHALAYLKKINIKGKVVVVNLSGRGDKDLESVLNHPYVRERIRLEHHHHHH",Km,[5],26 µM
Thermotoga maritima tryptophan synthase complex TmTrpS (TmTrpA + TmTrpB) (Thermotoga maritima MSB8) (protein) MKGYFGPYGGQYVPEILMPALEELEAAYEEIMKDESFWKEFNDLLRDYAGRPTPLYFARRLSEKYGARIYLKREDLLHTGAHKINNAIGQVLLAKKMGKTRIIAETGAGQHGVATATAAALFGMECVIYMGEEDTIRQKPNVERMKLLGAKVVPVKSGSRTLKDAINEALRDWITNLQTTYYVIGSVVGPHPYPIIVRNFQKVIGEETKKQILEKEGRLPDYIVACVGGGSNAAGIFYPFIDSGVKLIGVEAGGEGLETGKHAASLLKGKIGYLHGSKTFVLQDDWGQVQVTHSVSAGLDYSGVGPEHAYWRETGKVLYDAVTDEEALDAFIELSRLEGIIPALESSHALAYLKKINIKGKVVVVNLSGRGDKDLESVLNHPYVRERIRLEHHHHHH,Km,[6],44 µM
"Thermotoga maritima tryptophan synthase beta-subunit TmTrpB, wild type, SEQ ID NO: 6 (Thermotoga maritima MSB8) (protein) MKGYFGPYGGQYVPEILMPALEELEAAYEEIMKDESFWKEFNDLLRDYAGRPTPLYFARRLSEKYGARIYLKREDLLHTGAHKINNAIGQVLLAKKMGKTRIIAETGAGQHGVATATAAALFGMECVIYMGEEDTIRQKPNVERMKLLGAKVVPVKSGSRTLKDAINEALRDWITNLQTTYYVIGSVVGPHPYPIIVRNFQKVIGEETKKQILEKEGRLPDYIVACVGGGSNAAGIFYPFIDSGVKLIGVEAGGEGLETGKHAASLLKGKIGYLHGSKTFVLQDDWGQVQVTHSVSAGLDYSGVGPEHAYWRETGKVLYDAVTDEEALDAFIELSRLEGIIPALESSHALAYLKKINIKGKVVVVNLSGRGDKDLESVLNHPYVRERIRLEHHHHHH",Km,[7],33 µM

# Source: patent US12534748B2, “Engineered beta-subunit of tryptophan synthase for production of non-canonical amino acids” (California Institute of Technology, priority 2015, dated 2026)
